The target in the assay is Ror2-mCherry (xRor2-mCherry in pCS2+). The assay is described as follows: fluorescence cross-correlation spectroscopy (FCCS); plasma membrane of live PAC2 cells expressing GFP-Vangl2 and Ror2-mCherry; untreated control (no Wnt protein added); laser spot scanned across the membrane for 16 s; diffusion with triplet fit.

A value given as a limit tells only on which side of the number the result lay.

Consider “GFP-Vangl2 (meGFP-Vangl2 in pcDNA3.1) (from UniProt Q8UVJ6 1-526) (natural protein)”, for which the KD without m3 or m4 (untreated control) was greater than 1100 nM.

These data come from publication PMC8024337.
